From patent publication US20240132578A1

What was measured:
Assay in all cases: cell-based or functional assay
[1] = molecular target: HIV-1 93IN905 Env (HIV-1 isolate 93IN905 (clade C))
[2] = molecular target: HIV-1 94UG103 Env (HIV-1 isolate 94UG103 (clade A))
[3] = molecular target: HIV-1 APV6 Env (HIV-1 isolate APV6 (clade B))
[4] = molecular target: HIV-1 MGRM-C-026 Env (HIV-1 isolate MGRM-C-026 (clade C))
[5] = molecular target: HIV-1 MGRM-D-018 Env (HIV-1 isolate MGRM-D-018 (clade D))
[6] = molecular target: HIV-1 envelope glycoprotein (Env) of isolate 92UG005 (HIV-1)
[7] = molecular target: HIV-1 envelope glycoprotein (Env) of isolate MGRM-D-018 (HIV-1)
[8] = molecular target: HIV-1 92UG005 envelope glycoprotein (Env) on virus (HIV-1, clade D, isolate 92UG005)
[9] = molecular target: HIV-1 APV6 envelope glycoprotein (Env) on virus (HIV-1, clade B, isolate APV6)
[10] = molecular target: HIV-1 JRCSF envelope glycoprotein (Env) on virus (HIV-1, clade B, isolate JRCSF) (UniProt P20871)
[11] = molecular target: HIV-1 MGRM-D-018 envelope glycoprotein (Env) on virus (HIV-1, clade D, isolate MGRM-D-018)
[12] = molecular target: HIV-1 94UG103 Env (pseudovirus) (HIV-1)
[13] = molecular target: HIV-1 NL43 Env (pseudovirus) (HIV-1)
[14] = molecular target: aMLV envelope (negative control pseudovirus)
[15] = molecular target: HIV-1 92RW020 envelope glycoprotein (Env) (HIV-1)
[16] = molecular target: HIV-1 APV13 envelope glycoprotein (Env) (HIV-1)
[17] = molecular target: HIV-1 MGRM-C-026 envelope glycoprotein (Env) (HIV-1)
[18] = molecular target: HIV-1 JR-FL Env E168K, on pseudovirus (HIV-1 isolate JR-FL (clade B))
[19] = molecular target: HIV-1 93IN905 envelope glycoprotein (Env), clade C pseudovirus (HIV-1)
[20] = molecular target: HIV-1 93UG077 envelope glycoprotein (Env), clade A pseudovirus (HIV-1)
[21] = molecular target: HIV-1 APV6 envelope glycoprotein (Env), clade B pseudovirus (HIV-1)
[22] = molecular target: HIV-1 MGRM-C-027 envelope glycoprotein (Env), clade C pseudovirus (HIV-1)
[23] = molecular target: HIV-1 MGRM-C-028 envelope glycoprotein (Env), clade C pseudovirus (HIV-1)
[24] = molecular target: HIV-1 Env of isolate APV_13 (subtype B), on pseudovirus (HIV-1)
[25] = molecular target: HIV-1 Env of isolate JRFL (subtype B), on pseudovirus (HIV-1)
[26] = molecular target: HIV-1 Env of isolate MG RM-D-021 (subtype D) (HIV-1)
[27] = molecular target: HIV-1 Env of pseudovirus 92UG001 (HIV-1)
[28] = molecular target: HIV-1 envelope glycoprotein (Env) of isolate MG RM-A-002 (HIV-1)
[29] = molecular target: HIV-1 envelope glycoprotein (Env) of isolate MG RM-A-006 (HIV-1)
[30] = molecular target: HIV-1 envelope glycoprotein (Env) of isolate MG RM-A-008 (HIV-1)
[31] = molecular target: HIV-1 Env of isolate 92UG024 (clade D) (HIV-1)
[32] = molecular target: HIV-1 Env of isolate MGRM-D-018 (clade D) (HIV-1)

Chain of 5329_C19 (PGT-136) (antibody) (VH): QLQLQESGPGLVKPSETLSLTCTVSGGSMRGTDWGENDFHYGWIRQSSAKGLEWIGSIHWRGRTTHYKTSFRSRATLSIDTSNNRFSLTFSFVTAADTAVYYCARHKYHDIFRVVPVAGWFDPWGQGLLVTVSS
Chain of 5329_C19 (PGT-136) (antibody) (VL): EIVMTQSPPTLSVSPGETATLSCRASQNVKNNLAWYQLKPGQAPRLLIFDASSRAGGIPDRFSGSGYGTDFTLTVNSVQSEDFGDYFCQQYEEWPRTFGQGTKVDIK
Chain of 1443_C16 (PG16) (TCN-116) (antibody) (VH): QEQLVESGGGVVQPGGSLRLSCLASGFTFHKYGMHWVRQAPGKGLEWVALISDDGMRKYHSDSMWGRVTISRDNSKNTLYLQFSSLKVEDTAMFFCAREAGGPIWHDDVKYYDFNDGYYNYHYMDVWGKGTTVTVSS
Chain of 1443_C16 (PG16) (TCN-116) (antibody) (VL): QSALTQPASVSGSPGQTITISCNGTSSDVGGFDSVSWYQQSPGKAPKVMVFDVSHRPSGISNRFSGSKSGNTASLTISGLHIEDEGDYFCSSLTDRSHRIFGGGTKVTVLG

In the case of 4838_L06 (PGT-121) (antibody), the Neutralization IC80 [1] is reported as 0.0302 µg/mL, the Neutralization IC90 [1] is reported as 0.0645 µg/mL and the Neutralization IC80 [2] is reported as 8.85 µg/mL. The Neutralization IC80 [3] was 0.145 µg/mL, the Neutralization IC95 [3] was 0.569 µg/mL and the Neutralization IC95 [4] was 0.0687 µg/mL. For the same substance, the Neutralization IC80 [5] was 0.0231 µg/mL, the Neutralization IC90 [5] was 0.0414 µg/mL and the Neutralization IC95 [5] was 0.0715 µg/mL.
In the case of 5141_B17 (PGT-126) (antibody), the Neutralization IC80 [6] is reported as 0.145 µg/mL, the Neutralization IC90 [6] is reported as 0.553 µg/mL and the Neutralization IC95 [6] is reported as 2.45 µg/mL. The neutralization IC50 [6] was 0.0181 µg/mL, the Neutralization IC80 [7] was 0.0391 µg/mL and the Neutralization IC90 [7] was 0.0918 µg/mL. For the same substance, the Neutralization IC95 [7] was 0.205 µg/mL and the neutralization IC50 [7] was 0.0093 µg/mL.
Work on 4877_D15 (PGT-122) (antibody) yielded a Neutralization IC80 [8] greater than 10 µg/mL, a Neutralization IC90 [8] greater than 10 µg/mL and a Neutralization IC95 [8] greater than 10 µg/mL. For the same substance, the neutralization IC50 [8] was greater than 10 µg/mL, the Neutralization IC80 [9] was 0.351 µg/mL and the Neutralization IC90 [9] was 0.779 µg/mL. For the same substance, the Neutralization IC95 [9] was 1.55 µg/mL, the neutralization IC50 [9] was 0.0851 µg/mL and the Neutralization IC80 [10] was 0.245 µg/mL. It also gave a Neutralization IC90 [10] of 0.494 µg/mL, a Neutralization IC95 [10] of 0.926 µg/mL and a neutralization IC50 [10] of 0.0727 µg/mL. For the same substance, the Neutralization IC80 [11] was 0.035 µg/mL, the Neutralization IC90 [11] was 0.0674 µg/mL and the Neutralization IC95 [11] was 0.125 µg/mL. It also gave a neutralization IC50 [11] of 0.0115 µg/mL.
For 5123_A06 (PGT-125) (antibody), the Neutralization by PGT-125, IC50 [12] was 0.0124 µg/mL, the Neutralization by PGT-125, IC80 [12] was 0.0373 µg/mL and the Neutralization by PGT-125, IC90 [12] was 0.071 µg/mL. For the same substance, the Neutralization by PGT-125, IC95 [12] was 0.129 µg/mL, the Neutralization by PGT-125, IC50 [13] was greater than 10 µg/mL and the Neutralization by PGT-125, IC80 [13] was greater than 10 µg/mL. It also gave a Neutralization by PGT-125, IC90 [13] greater than 10 µg/mL, a Neutralization by PGT-125, IC95 [13] greater than 10 µg/mL and a Neutralization by PGT-125, IC50 [14] greater than 10 µg/mL. The Neutralization by PGT-125, IC80 [14] was greater than 10 µg/mL, the Neutralization by PGT-125, IC90 [14] was greater than 10 µg/mL and the Neutralization by PGT-125, IC95 [14] was greater than 10 µg/mL.
For 5329_C19 (PGT-136) (antibody), the Neutralization IC80 [15] was greater than 10 µg/mL, the Neutralization IC90 [15] was greater than 10 µg/mL and the Neutralization IC95 [15] was greater than 10 µg/mL. It also gave a neutralization IC50 [15] of 0.738 µg/mL, a Neutralization IC80 [16] greater than 10 µg/mL and a Neutralization IC90 [16] greater than 10 µg/mL. It also gave a Neutralization IC95 [16] greater than 10 µg/mL, a neutralization IC50 [16] greater than 10 µg/mL and a Neutralization IC80 [17] of 0.0285 µg/mL. It also gave a Neutralization IC90 [17] of 0.0687 µg/mL, a Neutralization IC95 [17] of 0.159 µg/mL and a neutralization IC50 [17] of 0.0065 µg/mL.
1443_C16 (PG16) (TCN-116) (antibody) showed an IC50 (ug/ml), pseudovirus neutralization, TZM-bl assay [18] of 0.006 µg/mL.
In the case of 4858_P08 (PGT-123) (antibody), the IC50, pseudovirus neutralization [19] is reported as 0.0071 µg/mL, the IC80 (pseudovirus neutralization) [19] is reported as 0.0281 µg/mL and the IC90 (pseudovirus neutralization) [19] is reported as 0.0625 µg/mL. The IC95 (pseudovirus neutralization) [19] was 0.131 µg/mL, the IC50, pseudovirus neutralization [20] was 0.0303 µg/mL and the IC80 (pseudovirus neutralization) [20] was 0.143 µg/mL. It also gave an IC90 (pseudovirus neutralization) [20] of 0.35 µg/mL, an IC95 (pseudovirus neutralization) [20] of 0.78 µg/mL and an IC50, pseudovirus neutralization [21] of 0.0328 µg/mL. For the same substance, the IC80 (pseudovirus neutralization) [21] was 0.145 µg/mL, the IC90 (pseudovirus neutralization) [21] was 0.339 µg/mL and the IC95 (pseudovirus neutralization) [21] was 0.726 µg/mL. The IC50, pseudovirus neutralization [22] was 0.0169 µg/mL, the IC80 (pseudovirus neutralization) [22] was 0.149 µg/mL and the IC90 (pseudovirus neutralization) [22] was greater than 10 µg/mL. The IC95 (pseudovirus neutralization) [22] was greater than 10 µg/mL, the IC50, pseudovirus neutralization [23] was 0.443 µg/mL and the IC80 (pseudovirus neutralization) [23] was 2.8 µg/mL. The IC90 (pseudovirus neutralization) [23] was 7.11 µg/mL and the IC95 (pseudovirus neutralization) [23] was greater than 10 µg/mL.
PGV04 (antibody) was tested, and the IC50, single-round pseudovirus neutralization [24] was 1.23 µg/mL, the IC50, single-round pseudovirus neutralization [25] was 0.032 µg/mL and the IC50 (µg/mL), pseudovirus neutralization [26] was greater than 50 µg/mL. It also gave an IC50, pseudovirus neutralization [27] of 0.553 µg/mL, an IC50 [28] of 0.093 µg/mL and an IC50 [29] of 0.244 µg/mL. The IC50 [30] was 0.555 µg/mL.
With 1496_C09 (PG9) (TCN-109) (antibody) the neutralization IC50 [31] was 1.91 µg/mL, the Neutralization IC80 [32] was 0.18 µg/mL and the Neutralization IC90 [32] was 0.43 µg/mL. It also gave a Neutralization IC95 [32] of 1.05 µg/mL and a neutralization IC50 [32] of 0.0444 µg/mL.
